Laboratory results taken from patent publication US20140256918A1 (published 2014).

T1: C-terminal 6×His-tagged hCXCR5 whole receptor protein (human, UniProt P32302 1-372, crosslinked on the chip with NHS/EDC after capture)
T1 construct: mature; Purified whole receptor (monomers, dimers and trimers on SDS-PAGE), captured on a Ni-NTA chip and stabilized by limited crosslinking; also called human CXCR5 receptor; 6×His-hCXCR5
T1 sequence: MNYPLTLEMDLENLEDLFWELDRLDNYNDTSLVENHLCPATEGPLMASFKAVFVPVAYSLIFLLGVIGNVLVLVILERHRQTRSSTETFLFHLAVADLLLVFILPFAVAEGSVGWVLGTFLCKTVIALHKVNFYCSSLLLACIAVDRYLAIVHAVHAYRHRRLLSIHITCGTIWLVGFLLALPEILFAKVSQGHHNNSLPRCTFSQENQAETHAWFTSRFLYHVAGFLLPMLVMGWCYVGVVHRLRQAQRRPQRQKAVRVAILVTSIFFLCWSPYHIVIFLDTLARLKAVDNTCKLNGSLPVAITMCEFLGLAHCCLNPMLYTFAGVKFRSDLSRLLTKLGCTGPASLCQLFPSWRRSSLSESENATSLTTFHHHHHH


Assays:
[1] = molecular target: CD52 displayed on virus-like particles (CD52 VLP) (UniProt P31358); test: SPR (Biacore), CD52 VLP captured by Campath and crosslinked on C1 chip, mAb injected
[2] = molecular target: CD52 displayed on virus-like particles (CD52 VLP) (UniProt P31358); test: SPR (Biacore), CD52 VLP captured by Campath and crosslinked on C1 chip, mAb injected; second curve
[3] = molecular target: biotinylated N-terminal hCXCR5 peptide (human); test: SPR (Biacore), reversed format, biotinylated peptide on SA chip at 100 RU; mean
[4] = molecular target: C-terminal 6×His-tagged hCXCR5 whole receptor protein (human) (UniProt P32302); test: SPR (Biacore), whole receptor captured and crosslinked on NTA chip at 300 RU, analyte injected; mean of triplicate
[5] = molecular target: biotinylated N-terminal hCXCR5 peptide (human); test: SPR (Biacore), reversed format, biotinylated peptide on SA chip at 5 RU; mean
[6] = molecular target: biotinylated N-terminal hCXCR5 peptide (human); test: SPR (Biacore), reversed format: biotinylated peptide on SA chip, mAb injected; mean
[7] = molecular target: C-terminal 6×His-tagged hCXCR5 whole receptor protein (human) (UniProt P32302); test: SPR (Biacore), whole receptor captured and crosslinked on NTA chip at 700 RU, analyte injected; mean of triplicate
[8] = molecular target: hCXCR5 N-terminal peptide (human); test: SPR (Biacore), conventional format: mAb captured by anti-mouse antibody on CM5 chip, peptide injected; mean
[9] = molecular target: biotinylated N-terminal hCXCR5 peptide (human); test: SPR (Biacore), reversed format, biotinylated peptide on SA chip at 20 RU; mean
[10] = molecular target: T1, C-terminal 6×His-tagged hCXCR5 whole …; test: SPR (Biacore), whole receptor captured and crosslinked on NTA chip at 700 RU, analyte injected; mean of triplicate
[11] = molecular target: T1, C-terminal 6×His-tagged hCXCR5 whole …; test: SPR (Biacore), whole receptor captured and crosslinked on NTA chip at 300 RU, analyte injected; mean of triplicate
Experimental: For direct capturing by an NTA SPR sensor chip, the purified 6×His-hCXCR5 protein was diluted to 50 ug/ml with HBS—N (from GE) buffer. An NTA reagent kit (GE) was used for chip surface preparation. The flow rate was set to 5 ul/ml and HBS—N was used as the running buffer. […] In order to stabilize native-like structure of the receptor captured on the chip surface, the commonly used amine coupling reagent NHS/EDC was tested at different concentrations as shown in FIGS. 11 and 12.
In order to assess the impact of the avidity effect on this capture and stabilization method, chip surfaces with different receptor densities were prepared.

[12] = molecular target: biotinylated N-terminal hCXCR5 peptide (human); test: SPR (Biacore), reversed format, biotinylated peptide on SA chip at 100 RU; mean; called artificial, outside the Biacore accuracy limit
[13] = molecular target: biotinylated N-terminal hCXCR5 peptide (human); test: SPR (Biacore), reversed format, biotinylated peptide on SA chip at 100 RU; mean; affected by avidity and artificial Koff
[14] = molecular target: biotinylated N-terminal hCXCR5 peptide (human); test: SPR (Biacore), reversed format: biotinylated peptide on SA chip; the reference of the comparison is not named (by Table 2, the other two clones)

Row | kon [3] [M⁻¹ s⁻¹] | Kd [5] [pM] | koff [5] [s⁻¹] | kon [5] [M⁻¹ s⁻¹] | Kd [6] [pM] | koff [6] [s⁻¹] | kon [6] [M⁻¹ s⁻¹] | Kd [8] [pM] | koff [8] [s⁻¹] | kon [8] [M⁻¹ s⁻¹] | Kd [9] [pM] | koff [9] [s⁻¹] | kon [9] [M⁻¹ s⁻¹] | Kd [10] [pM] | koff [10] [s⁻¹] | kon [10] [M⁻¹ s⁻¹] | Kd [11] [pM] | koff [11] [s⁻¹] | kon [11] [M⁻¹ s⁻¹] | Molecule | further results
1 |  |  |  |  |  |  |  |  |  |  |  |  |  |  |  |  |  |  |  | anti-CD52 mAb (Campath) (antibody) | Kd [1]: 5750 pM; koff [1]: 0.00109 s⁻¹; kon [1]: 189000 M⁻¹ s⁻¹; Kd [2]: 5810 pM; koff [2]: 0.000937 s⁻¹; kon [2]: 161000 M⁻¹ s⁻¹
2 | 6.5e+06 | 164 | 0.000711 | 4.33e+06 | 141 | 0.000595 | 4.23e+06 | 656 | 0.00027 | 408000 | 66.8 | 0.000511 | 7.65e+06 |  |  |  |  |  |  | mouse anti-hCXCR5 mAb MAB190 (antibody) | Kd [3]: 39.4 pM; koff [3]: 0.000256 s⁻¹; Kd [4]: 610 pM; koff [4]: 0.000423 s⁻¹; kon [4]: 694000 M⁻¹ s⁻¹; Kd [7]: 256 pM; koff [7]: 0.000307 s⁻¹; kon [7]: 1.2e+06 M⁻¹ s⁻¹
3 |  |  |  |  |  |  |  |  |  |  |  |  |  | 891 | 0.00553 | 6.25e+06 | 1370 | 0.00718 | 5.26e+06 | CXCL13 (ligand, UniProt O43927 23-109, looked up, also called hCXCR5 ligand) VLEVYYTSLRCRCVQESSVFIPRRFIDRIQILPRGNGCPRKEIIVWKKNKSIVCVDPQAEWIQRMMEVLRKRSSSTLPVPVFKRKIP | 
4 | 1.01e+06 | 70.2 | 4.71e-05 | 681000 | 65 | 4.59e-05 | 708000 | 503 | 0.000241 | 480000 | 32.5 | 2.7e-05 | 832000 | 39.6 | 1.28e-05 | 318000 | 39.9 | 9.62e-06 | 240000 | mouse anti-hCXCR5 mAb clone 16D7 (antibody, V domains shown) VH: QVQLKESGPGLVAPSQSLSITCTVSGFSLIDYGVNWIRQPPGKGLEWLGVIWGDGTTYYNSALKSRLSIRKDNSQSQVFLKMNSLQTDDTAMYYCARIVYWGQGTLVTVSA VL: DIVMTQAAPSVAVTPRESVSISCRSSKSLLHSSGKTYLYWFLQRPGQSPQLLIYRMSNLASGVPDRFSGSGSGTAFTLRISRVEAEDVGVYYCMQHLEYPYTFGGGTKLEIK | koff [12]: 9.85e-08 s⁻¹; Kd [13]: 0.0974 pM; fold slower off-rate [14]: > 10 fold
